Assay results published in PMC9871336, “Positive charge in the K-loop of the kinesin-3 motor KIF1A regulates superprocessivity by enhancing microtubule affinity in the one-head–bound state” (The Journal of Biological Chemistry, 2022).

Key:
[1] = system: T1, 1A-K1L12; assay: stopped-flow ATP-triggered half-site release of mant-ADP; assay type: biochemical, Rattus norvegicus; conditions: taxol-stabilized microtubules; 1HB complex with mant-ADP; Mg-ATP varied; half-maximal ATP for mant-ADP release, not steady-state ATPase
T1 construct: gene Kif1a; fused to D. melanogaster KHC neck-coil for dimerization; C-terminal His6; E. coli

[2] = substrate: Nc1ncnc2c1ncn2[C@@H]1O[C@H](COP(=O)(O)OP(=O)(O)OP(=O)(O)O)[C@@H](O)[C@H]1O; assay: as above; assay type: biochemical, Rattus norvegicus; conditions: taxol-stabilized microtubules; 1HB complex with mant-ADP; Mg-ATP varied; half-maximal ATP for mant-ADP release, not steady-state ATPase

Km [1] | Molecule | Km [2]
64 ± 28 µM | Nc1ncnc2c1ncn2[C@@H]1O[C@H](COP(=O)(O)OP(=O)(O)OP(=O)(O)O)[C@@H](O)[C@H]1O [ATP] | –
– | 1A393 (Rattus norvegicus) (protein, KIF1A 1-393 (motor, neck linker, neck-coil) fused to D. melanogaster KHC neck-coil 345-406 for dimerization (biochemical version; 345-560 plus GFP for single-molecule); C-terminal His6; E. coli; dimer) MAGASVKVAVRVRPFNSREMSRDSKCIIQMSGSTTTIVNPKQPKETPKSFSFDYSYWSHTSPEDINYASQKQVYRDIGEEMLQHAFEGYNVCIFAYGQTGAGKSYTMMGKQEKDQQGIIPQLCEDLFSRINDTTNDNMSYSVEVSYMEIYCERVRDLLNPKNKGNLRVREHPLLGPYVEDLSKLAVTSYNDIQDLMDSGNKARTVAATNMNETSSRSHAVFNIIFTQKRHDAETNITTEKVSKISLVDLAGSERADSTGAKGTRLKEGANINKSLTTLGKVISALAEMDSGPNKNKKKKKTDFIPYRDSVLTWLLRENLGGNSRTAMVAALSPADINYDETLSTLRYADRAKQIRCNAIINEDPNNKLIRELKDEVTRLRDLLYAQGLGDITD | 96 ± 53 µM
– | 1A368 (Rattus norvegicus) (protein, KIF1A 1-368 (motor, neck linker) fused to D. melanogaster KHC neck-coil 345-406 for dimerization (biochemical version; 345-560 plus GFP for single-molecule); C-terminal His6; E. coli; dimer) MAGASVKVAVRVRPFNSREMSRDSKCIIQMSGSTTTIVNPKQPKETPKSFSFDYSYWSHTSPEDINYASQKQVYRDIGEEMLQHAFEGYNVCIFAYGQTGAGKSYTMMGKQEKDQQGIIPQLCEDLFSRINDTTNDNMSYSVEVSYMEIYCERVRDLLNPKNKGNLRVREHPLLGPYVEDLSKLAVTSYNDIQDLMDSGNKARTVAATNMNETSSRSHAVFNIIFTQKRHDAETNITTEKVSKISLVDLAGSERADSTGAKGTRLKEGANINKSLTTLGKVISALAEMDSGPNKNKKKKKTDFIPYRDSVLTWLLRENLGGNSRTAMVAALSPADINYDETLSTLRYADRAKQIRCNAIINEDPNNKL | 119 ± 20 µM
